Laboratory results published in article PMC10419011.
Substitutions are numbered along the chain they refer to.

B1: neuropeptide Y receptor Y2, P49146 (protein)
chain: MGPIGAEADENQTVEEMKVEQYGPQTTPRGELVPDPEPELIDSTKLIEVQVVLILAYCSIILLGVIGNSLVIHVVIKFKSMRTVTNFFIANLAVADLLVNTLCLPFTLTYTLMGEWKMGPVLCHLVPYAQGLAVQVSTITLTVIALDRHRCIVYHLESKISKRISFLIIGLAWGISALLASPLAIFREYSLIEIIPDFEIVACTEKWPGEEKSIYGTVYSLSSLLILYVLPLGIISFSYTRIWSKLKNHVSPGAANDHYHQRRQKTTKMLVCVVVVFAVSWLPLHAFQLAVDIDSQVLDLKEYKLIFTVFHIIAMCSTFANPLLYGWMNSNYRKAFLSAFRCEQRLDAIHSEVSVTFKAKKNLEVRKNSGPNDSFTEATNV
B2: Y2R_A202^45.49C-Δ6Cys-polyHis, P49146 1-381 (receptor)
chain: B1 chain with C58A, C103A, C151A, A202C, C272S, C316A, C342S
modifications: not checked

Experiments:
[1] = molecular target: neuropeptide Y (Homo sapiens), P01303; test: competition; details: remark: other sources report otherwise
[2] = molecular target: K^18-TAMRA-NPY; test: fluorescence polarisation; various concentrations of receptor in small DMPC/DHPC bicelles with 50 nM (K^18-TAMRA)-NPY, 1 h at room temperature, measured at 20 °C; sigmoidal dose-response fit

Binder	Kd [1] [nM]	Kd [2] [nM]
B1	2.3	–
B2	–	61.4
